Assay results as given in publication PMC3094495.

What was measured:
[1] = target: bacteriophage N15 Cro (bacteriophage N15); assay: native MS
[2] = target: N15 Cro (Escherichia phage N15) (UniProt P03040); details: cited from earlier work
[3] = target: λ Cro (Escherichia phage lambda) (UniProt P03040); details: cited from earlier work
[4] = target: T1, bacteriophage λ Cro (bacteriophage λ), P03040; assay: native MS; details: remark: other sources report otherwise
T1 chain: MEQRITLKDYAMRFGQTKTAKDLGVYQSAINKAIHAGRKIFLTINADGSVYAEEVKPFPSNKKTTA

Q: For bacteriophage N15 Cro (natural protein), which stoichiometry N [1] is on record?
A: 2

Q: For N15 Cro (from UniProt P03040), which Kd [2] is on record?
A: 5 µM

Q: Which Kd [3] does the source give for λ Cro (from UniProt P03040) here?
A: 3 µM

B1: bacteriophage λ Cro, P03040 1-66 (natural protein)
chain: T1 chain
Q: Which stoichiometry N [4] does the source give for B1 here?
A: 2
